Measurements: PMC9968005, “Therapeutic Performance Evaluation of ^213Bi-Labelled Aminopeptidase N (APN/CD13)-Affine NGR-Motif ([^213Bi]Bi-DOTAGA-cKNGRE) in Experimental Tumour Model: A Treasured Tailor for Oncology” (Pharmaceutics, 2023)

How the values were obtained:
[1] = LogP measurement of [205/206Bi]Bi-DOTAGA-cKNGRE (n-octanol/water); type: physicochemical; details: shake-flask n-octanol/water, 205/206Bi as surrogates for 213Bi, 10 µL tracer in saline + 0.49 mL water + 0.5 mL n-octanol, shaken 5 min, centrifuged 6000 rpm 5 min, gamma counter
Method: For the determination of LogP value we used ^205/206Bi isotopes as surrogates which were produced by GE PETtrace cyclotron using the method described by Lagunas-Solar et al.. The radiolabelling of the precursor was carried out as follows: 50 µL of 3 M NH4OAc buffer (pH 4) and 15 µL of 6 mM DOTAGA-cKNGRE aqueous solution were added to 50 µL [^205/206Bi]BiCl3 in 0.1 M HCl. The labelled complex was purified as described above. Then 10 µL of the purified [^205/206Bi]Bi-DOTAGA-cKNGRE in physiological saline (Salsol, TEVA, Debrecen, Hungary) was diluted with 0.49 mL water. It was then mixed with 0.5 mL n-octanol in a vial and shaken for 5 min. After centrifugation (6000 rpm, 5 min) the radioactivity of the sample from both the aqueous and n-octanol phase was measured with a Perkin Elmer Packard Cobra gamma counter. The LogP value was −2.59.

[2] = Serum stability of [205/206Bi]Bi-DOTAGA-cKNGRE; type: in vitro ADME; details: mouse plasma (heading says serum); 50 µL tracer in saline + 50 µL mouse plasma, 90 min, radio-iTLC; read-out: RCP after 90 min incubation in serum
Method: Fifty μL of [^205/206Bi]Bi-DOTAGA-Bn-cKNGRE in physiological saline (Salsol, TEVA, Debrecen, Hungary) was added to the solution of fifty μL of mouse plasma. The RCP of the samples was determined by radio-iTLC at 0, 30, 60 and 90 min time points using the same method as described above. After 90 min the [^205/206Bi]Bi-DOTAGA-Bn-cKNGRE remained intact as the RCP of the sample taken from the mixture was above 95%, which meets the requirements for ^213Bi-labelled radiopharmaceuticals.

HT1080 fibrosarcoma = assay: Cancer treatment study: tumour volume; type: in vivo, CB17 SCID mice; details: approximately 5 MBq i.p. on days 7, 8, 10, 12, calliper, mean ± SD
Method: (§1) Experimental tumour induction was carried out under inhalation anaesthesia with a dedicated small animal anaesthesia device (Tec3 Isoflurane Vaporizer, Eickemeyer Veterinary Equipment, Luton, UK) applying 3% isoflurane (Forane, AbbVie, Chicago, IL, USA), 0.4 L/min O2 and 1.4 L/min N2O. This was followed by depilation and disinfection subcutaneous (s.c.) inoculation of 1.5 × 10^6 HT1080 (human fibrosarcoma) cells in 100 μL (1/3 part of Matrigel and 2/3 part of saline) into the left shoulder area of the CB17 SCID mice. For tumour verification the study mice underwent in vivo [^68Ga]Ga-DOTAGA-cKNGRE-based PET imaging 10 ± 1 days post tumour cell inoculation. To evaluate the organ distribution pattern of the ^213Bi-labelled therapeutic peptide compounds, ex vivo biodistribution studies were also executed 10 ± 1 days following the HT1080 cell transplantation at an average tumour volume of 155 ± 20 mm^3. Thereafter, tumour sizes based on the largest and the smallest tumour diameters were registered ((largest diameter × smallest diameter^2)/2). We used calliper measurements for tumour growth determination.
Seven days after HT1080 cell inoculation the tumour-bearing animals were randomly classified into two subgroups: treatment-naïve group (control, n = 8) and [^213Bi]Bi-DOTAGA-cKNGRE-treated group (treated, n = 8). Approximately 5 MBq [^213Bi]Bi-DOTAGA-cKNGRE was intraperitoneally (i.p.) administered to the experimental mice of the treated cohort on the 7th, 8th, 10th and 12th experimental days. The control mice were i.p. injected with 150 μL saline solution applying the same time regime.
On the 7th, 8th, 10th and 12th days of the investigation at an average tumour volume of 26.56 ± 2.39 mm^3 CB17 SCID mice bearing HT1080 fibrosarcoma in their left shoulder area were i.p. injected with approximately 5 MBq [^213Bi]Bi-DOTAGA- cKNGRE. The treatment-naïve study mice i.p. received 150 μL saline solution on the same experimental days. In a bid to assess the therapeutic efficacy of the investigated probe, body weights (BW, expressed in grams/g ± SD) and tumour volume (mm^3 ± SD) of the small animals were registered. Calliper measurements were applied to evaluate tumour development.

in vivo = assay: in vivo; design: species or system CB17 SCID mice; details: CB17 SCID, mouse, 5 MBq, total radioactivity
Method: as §1
To assess the organ distribution of [^213Bi]Bi-DOTAGA-cKNGRE, ex vivo investigations were performed. The HT1080 fibrosarcoma-bearing experimental mice were anaesthetised with Forane (5%) and were sacrificed at 30 and 90 min post administration of the radiopharmaceutical. After autopsy, selected tissues, organs and the tumour itself were removed, weighed wet and their radioactivity was measured on a calibrated gamma counter (Perkin-Elmer Packard Cobra, Waltham, MA, USA). Then, the activity was decay corrected to the time of the injection. The percent of administered dose per gram of tissue (%ID/g) was determined for all samples from the counts per minute values (CPM). We presented the ex vivo data as mean %ID/g ± SD.

[3] = system: CD13pos. HT1080 fibrosarcoma; details: mouse, in vivo; cited from earlier work
Method: The tumour-targeting potential of [^213Bi]Bi-DOTAGA-cKNGRE was also evaluated in HT1080 tumour-bearing CB17 mice. […] Although the tumourous tracer activity decreased from 30 to 90 min post-administration, relatively higher accumulation of the HT1080 neoplasms compared with the other organs at 90 min time point yields better tumour-to-background (T/M) ratios and image contrast. The tumour-to-organs ratio is ...

For `N=C(N)NCCC[C@@H]1NC(=O)CNC(=O)[C@H](CC(N)=O)NC(=O)[C@H](CCCCNC(=S)Nc2ccc(CNC(=O)CCC(C(=O)O)N3CCN(CC(=O)O)CCN(CC(=O)O)CCN(CC(=O)O)CC3)cc2)NC(=O)CC[C@@H](C(N)=O)NC1=O` (some centres unmarked) [[^205/206Bi]Bi-DOTAGA-cKNGRE], the LogP value [1] was −2.59 and the remaining at 1.5 h [2] was > 95%.
With `N=C(N)NCCC[C@@H]1NC(=O)CNC(=O)[C@H](CC(N)=O)NC(=O)[C@H](CCCCNC(=S)Nc2ccc(CNC(=O)CCC(C(=O)O)N3CCN(CC(=O)O)CCN(CC(=O)O)CCN(CC(=O)O)CC3)cc2)NC(=O)CC[C@@H](C(N)=O)NC1=O` (some centres unmarked) [[^213Bi]Bi-DOTAGA-cKNGRE, metal not drawn] the tumour volume (HT1080 fibrosarcoma; day 7) was 28.25 ± 2.67 mm^3, the tumour volume (HT1080 fibrosarcoma; day 8) was 23.33 ± 6.87 mm^3 and the tumour volume (HT1080 fibrosarcoma; day 9, p ≤ 0.01 vs untreated) was 35.36 ± 7.57 mm^3. For the same compound, the tumour volume (HT1080 fibrosarcoma; day 10, p ≤ 0.01 vs untreated) was 58.33 ± 14.36 mm^3, the tumour volume (HT1080 fibrosarcoma; day 12, p ≤ 0.01 vs untreated) was 112.50 ± 18.42 mm^3 and the tissue uptake at 0.5 h (in vivo; HT1080 tumor) was 1.48 ± 0.18 %ID/g. It also gave a tissue uptake at 1.5 h (in vivo; HT1080 tumor) of 0.8 ± 0.16 %ID/g, a tissue uptake at 0.5 h (in vivo; blood) of 2.72 ± 0.22 %ID/g and a tissue uptake at 0.5 h (in vivo; bone (femur)) of 0.69 ± 0.38 %ID/g. For the same compound, the tissue uptake at 0.5 h (in vivo; fat) was 0.72 ± 0.05 %ID/g, the tissue uptake at 0.5 h (in vivo; kidney) was 11.4 ± 1.41 %ID/g and the tissue uptake at 1.5 h (in vivo; kidney) was 4.51 ± 1.21 %ID/g. The tissue uptake at 0.5 h (in vivo; lung) was 2.09 ± 0.74 %ID/g, the tissue uptake at 1.5 h (in vivo; muscle) was 0.06 ± 0.02 %ID/g and the tissue uptake at 0.5 h (in vivo; pancreas) was 0.57 ± 0.18 %ID/g. For the same compound, the tissue uptake at 1.5 h (in vivo; pancreas) was 0.08 ± 0.03 %ID/g and the tissue uptake at 0.5 h (in vivo; stomach) was 0.73 ± 0.04 %ID/g.
In the case of “^68Ga-NOTA-Gly3-CNGRC [[^68Ga]Ga-NOTA-G3-NGR, ^68Ga-tagged CD13-affine peptide derivate, literature PET tracer]”, the tumour accumulation [3] is given as 4.96 ± 3.18 ID%/g.
